Experimental data reported in publication PMC9942874 (Immunity, 2023).

Assays:
Pfs230 C1 [1] = target: T1, Pfs230 C1 (Plasmodium falciparum 3D7 (clone of …, UniProt P68874)); experiment: ELISA; details: both partners purified
[2] = target: native Pfs230 (gametocyte extract) (Plasmodium falciparum NF54 (3D7 is its …, UniProt P68874)); experiment: […]; 5 μg/ml mAb in PBST; […]; details: one partner purified
Pfs230 C1 [3] = target: T1, Pfs230 C1; experiment: SPR; details: both partners purified
Pfs230 Pro = Pfs230 Pro (Plasmodium falciparum 3D7 (clone of …, UniProt P68874)); experiment: ELISA; details: both partners purified
Pfs230 Pro (Plasmodium falciparum 3D7, sequence (P68874 443-590): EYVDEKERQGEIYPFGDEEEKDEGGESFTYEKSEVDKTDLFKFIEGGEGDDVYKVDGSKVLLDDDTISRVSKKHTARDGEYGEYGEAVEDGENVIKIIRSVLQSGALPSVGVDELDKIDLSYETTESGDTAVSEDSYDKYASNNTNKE

T1 sequence (P68874 443-731): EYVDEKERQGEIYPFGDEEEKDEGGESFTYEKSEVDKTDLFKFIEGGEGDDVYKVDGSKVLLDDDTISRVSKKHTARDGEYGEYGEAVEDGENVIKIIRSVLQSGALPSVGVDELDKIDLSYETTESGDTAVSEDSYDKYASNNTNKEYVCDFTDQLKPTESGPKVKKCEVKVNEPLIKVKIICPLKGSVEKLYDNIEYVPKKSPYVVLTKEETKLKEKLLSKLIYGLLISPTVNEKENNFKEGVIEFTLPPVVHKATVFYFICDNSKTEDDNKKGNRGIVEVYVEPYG
native Pfs230 (gametocyte extract) (Plasmodium falciparum NF54, sequence (P68874 21-3135): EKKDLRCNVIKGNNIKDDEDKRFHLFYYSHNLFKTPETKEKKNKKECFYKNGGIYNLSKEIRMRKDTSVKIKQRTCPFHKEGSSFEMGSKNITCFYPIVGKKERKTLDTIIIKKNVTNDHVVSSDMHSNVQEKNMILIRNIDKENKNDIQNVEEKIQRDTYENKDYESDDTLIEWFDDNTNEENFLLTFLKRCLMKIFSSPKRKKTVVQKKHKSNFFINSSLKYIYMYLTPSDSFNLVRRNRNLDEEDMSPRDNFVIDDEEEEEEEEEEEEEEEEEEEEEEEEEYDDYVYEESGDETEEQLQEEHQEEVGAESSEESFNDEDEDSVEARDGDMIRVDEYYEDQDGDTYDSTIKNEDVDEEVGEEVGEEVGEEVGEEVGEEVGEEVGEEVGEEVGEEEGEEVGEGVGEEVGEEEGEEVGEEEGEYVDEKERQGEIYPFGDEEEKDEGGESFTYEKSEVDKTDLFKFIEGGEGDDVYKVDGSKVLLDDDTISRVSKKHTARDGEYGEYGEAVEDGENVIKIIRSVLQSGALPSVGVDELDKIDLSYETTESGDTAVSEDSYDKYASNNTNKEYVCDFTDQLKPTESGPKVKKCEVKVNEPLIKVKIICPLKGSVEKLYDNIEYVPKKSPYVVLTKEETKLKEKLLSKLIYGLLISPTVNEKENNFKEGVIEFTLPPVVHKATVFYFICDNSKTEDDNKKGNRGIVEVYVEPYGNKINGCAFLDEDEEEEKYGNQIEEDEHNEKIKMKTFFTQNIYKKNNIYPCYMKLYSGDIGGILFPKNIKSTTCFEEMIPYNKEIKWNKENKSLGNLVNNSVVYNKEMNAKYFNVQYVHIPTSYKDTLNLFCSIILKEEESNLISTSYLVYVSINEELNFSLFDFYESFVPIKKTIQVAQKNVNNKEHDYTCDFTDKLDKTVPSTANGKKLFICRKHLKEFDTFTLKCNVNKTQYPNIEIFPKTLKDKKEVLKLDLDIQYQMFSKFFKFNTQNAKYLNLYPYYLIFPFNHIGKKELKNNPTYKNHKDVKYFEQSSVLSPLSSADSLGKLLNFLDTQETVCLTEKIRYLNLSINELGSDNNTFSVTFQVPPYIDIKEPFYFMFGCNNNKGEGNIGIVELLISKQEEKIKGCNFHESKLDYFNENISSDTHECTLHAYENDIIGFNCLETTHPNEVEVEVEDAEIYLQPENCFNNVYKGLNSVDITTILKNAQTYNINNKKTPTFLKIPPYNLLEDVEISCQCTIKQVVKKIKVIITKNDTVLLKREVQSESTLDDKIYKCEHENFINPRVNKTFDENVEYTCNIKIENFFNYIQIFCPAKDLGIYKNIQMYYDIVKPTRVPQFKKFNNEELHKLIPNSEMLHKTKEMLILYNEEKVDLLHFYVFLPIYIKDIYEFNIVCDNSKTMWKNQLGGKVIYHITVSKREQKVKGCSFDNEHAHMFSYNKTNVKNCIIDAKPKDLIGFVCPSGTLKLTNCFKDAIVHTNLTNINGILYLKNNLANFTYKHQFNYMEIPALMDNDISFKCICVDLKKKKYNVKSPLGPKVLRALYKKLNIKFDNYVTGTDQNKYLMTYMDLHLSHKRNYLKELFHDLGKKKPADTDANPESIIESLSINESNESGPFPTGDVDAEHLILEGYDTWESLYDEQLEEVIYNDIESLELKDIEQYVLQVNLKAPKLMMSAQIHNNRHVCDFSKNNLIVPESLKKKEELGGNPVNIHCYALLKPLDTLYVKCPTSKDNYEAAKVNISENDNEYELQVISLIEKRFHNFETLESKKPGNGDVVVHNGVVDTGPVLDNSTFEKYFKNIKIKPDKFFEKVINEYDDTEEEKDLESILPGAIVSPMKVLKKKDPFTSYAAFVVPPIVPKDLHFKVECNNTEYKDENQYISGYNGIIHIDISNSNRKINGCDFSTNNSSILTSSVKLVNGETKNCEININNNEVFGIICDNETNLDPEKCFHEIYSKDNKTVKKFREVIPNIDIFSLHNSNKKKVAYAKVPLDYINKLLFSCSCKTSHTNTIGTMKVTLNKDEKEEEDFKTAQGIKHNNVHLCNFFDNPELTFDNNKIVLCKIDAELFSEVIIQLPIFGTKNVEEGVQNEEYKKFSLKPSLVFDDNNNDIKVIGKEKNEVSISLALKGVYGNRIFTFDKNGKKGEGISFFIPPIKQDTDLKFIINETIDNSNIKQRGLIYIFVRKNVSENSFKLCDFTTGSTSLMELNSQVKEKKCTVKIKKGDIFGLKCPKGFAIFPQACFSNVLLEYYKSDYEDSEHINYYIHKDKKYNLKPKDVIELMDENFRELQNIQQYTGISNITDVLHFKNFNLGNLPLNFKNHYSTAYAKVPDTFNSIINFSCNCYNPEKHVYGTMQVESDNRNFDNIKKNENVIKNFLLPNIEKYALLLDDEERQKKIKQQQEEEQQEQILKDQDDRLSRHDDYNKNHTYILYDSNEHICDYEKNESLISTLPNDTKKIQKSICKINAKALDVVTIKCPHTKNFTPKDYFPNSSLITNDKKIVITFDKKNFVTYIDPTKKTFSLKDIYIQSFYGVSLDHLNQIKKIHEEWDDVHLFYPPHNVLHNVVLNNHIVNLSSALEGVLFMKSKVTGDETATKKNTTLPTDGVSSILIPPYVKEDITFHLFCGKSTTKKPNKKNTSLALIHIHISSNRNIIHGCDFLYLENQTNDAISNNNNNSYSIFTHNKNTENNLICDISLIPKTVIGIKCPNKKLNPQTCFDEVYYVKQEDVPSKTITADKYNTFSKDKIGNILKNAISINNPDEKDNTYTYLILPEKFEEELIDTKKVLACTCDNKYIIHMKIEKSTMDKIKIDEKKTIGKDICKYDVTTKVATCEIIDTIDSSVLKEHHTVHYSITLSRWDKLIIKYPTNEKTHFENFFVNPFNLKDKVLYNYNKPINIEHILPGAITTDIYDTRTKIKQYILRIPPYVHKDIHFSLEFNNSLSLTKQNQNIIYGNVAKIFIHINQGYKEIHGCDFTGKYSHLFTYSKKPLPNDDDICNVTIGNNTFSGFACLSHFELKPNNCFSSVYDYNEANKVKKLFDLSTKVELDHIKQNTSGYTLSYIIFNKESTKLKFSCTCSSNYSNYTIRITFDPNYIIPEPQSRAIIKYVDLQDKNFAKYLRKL

B1: RUPA-126 (antibody, V domains shown)
VH: QVQLVQSGAEVKKPGASVTVSCKASGYTFTDYYLHWVRQAPGHGLEWMGWINPNSGITEYAQKFQGRVTVTRDTSISTIYMDLSRLRSDDTAIYYCVRRERGSPYTLFDYWGQGTLVIVSS
VL: QSVLTQPPSASGTPGQRVTISCSGGDSNIGTNYGYWYQQFPGTAPKLLIYWNNRRPSGVPDRFSGSKSGTSVFLAISGLRSEDEADYYCAAWDDSLSAPVFGGGTKLTVI
notes: also called RUPA-126 (IgG1)
B1: binds (Pfs230 C1 [1]); binds [2].

B2: RUPA-133 (antibody, V domains shown)
VH: QVQLVQSGAEVKKPGASVNVSCMPSGYTFSDYFLHWVRQAPGQGLEWMGWINPNSGLTKYAQKFQGRVTMTSDTSISTVYLDLSRLRSDDTAIYFCVRRERGSPYTLFDYWGQGTLVTVSS
VL: QSVLTQPPSASGTPGQRVTISCSGGASNIGTNYVYWYQQLPGTAPKLLIYWNNRRPSGVPDRFSGSKSGTSVSLAISGLRSEDEADYYCAAWDDSLSGPVFGGGTKLTVI
notes: also called RUPA-133 (IgG1)
B2: binds (Pfs230 C1 [1]); binds [2].

B3: 15C5 (IgG1) (antibody, V domains shown)
VH: DVQLQESGPGLVNPSQSLSLTCSVTGYSITSDYYWNWIRQFPGNKLEWMGYITYDGTNNYNPFFKNRISITRDTSQNQFFLKLNSVTTEDTATYYCARDGRYWYFDVWGAGTTVTVSS
VL: QIVLTQSPTLMSAFPGEKVTMTCSASSSVSYMYWYQQKPGSSPKPWIYLTSNLASGVPARFSGSGSGTSYSLTISSMEAEDAATYYCQQWNNSPPTFGAGTKLELK
notes: also called humanized analog of the 15C5 mouse mAb
B3: binds (Pfs230 C1 [3]).

B4: RUPA-135 (antibody, V domains shown)
VH: EVQLVDSGGGLVQPGGSLKLTCATSGFFFSGSAMHWVRQASGKGLEWVGRIRSKGNNYATAYAASVKGRFTISRDDSKNTAYLQMDSLKTEDTAVYYCSSRNSKVPDYWGQGTLVTVSS
VL: QSVLTQPPSASGTPGQRVTIFCSGSSSNIGSNFVYWYQQLPGAAPKLLIYRNHQRPSGVPDRLSGSKSGTSASLAISGLRSEDEADYYCAAWDDSLNVQVFGGGTKVTVL
notes: also called RUPA-135 (IgG1)
B4: binds (Pfs230 C1 [1]); binds (Pfs230 Pro).

B5: RUPA-136 (antibody, V domains shown)
VH: EVQLVESGGGLVRPGGSLRLSCAASGFNFSAYGMNWVRQAPGRGLEWISYISHNTSIIHYADSVKGRFTISRDNGANSLYLQLNTLRDGDTAVYYCVRDCATLIGGRLPICQYFFDYWGQGALVTVSS
VL: SYELTQPSSVSVSLGQTASITCSGDMLTGKYVRWFQQKPGQAPILVIYKDRKRPSGIPDRFSGSSSGTTVTLIINGARIEDEADYYCYSAAARKRVFGGGTKLTVL
notes: also called RUPA-136 (IgG1)
B5: binds (Pfs230 C1 [1]); binds (Pfs230 Pro).

B6: RUPA-33 (antibody, V domains shown)
VH: EVQLVESGGGLVQPGRSLRLSCAASGFTFDDYAVHWVRQVPGKGLEWVSGISWNSATLAYADSVTGRFTISRDNARNSLYLQMNSLRIEDTALYYCARALPERTYGHRAFDYWGRGTQVTVSS
VL: QSALTQPRSVSGSPGQSVTISCTGTSSDVGYFTFVSWYQQHPGEVPKLIIYDVTKRPSGVPDRFSGSKSGNTASLTISGLQSDDEADYYCCSYAGTYHIRFGGGTKLTVL
notes: also called RUPA-33 (IgG1)
B6: binds (Pfs230 C1 [1]); binds [2].

B7: RUPA-115 (antibody, V domains shown)
VH: EVQLVESGGGLVQPGRSLRLFCAASGFNFDDYAMHWVRQAPGKGLEWVSGISWNSGTLAYADFVMGRFTISRDTAKNSLYLQMNSLRAEDTAFYYCAKDLKKYISSSLDYWGQGTLVTVFS
VL: QSALTQPRSVSGSPGQSVTISCTGTSSDVGAYNFVSWFQHHPGKAPKLMIYDVTKRPSGVPDRFSASKSGNTASLTISGLQAEDEAEYYCCSYAGTYHVVFGGGTKLTVL
notes: also called RUPA-115 (IgG1)
B7: binds (Pfs230 C1 [1]); binds [2].

B8: RUPA-96 (antibody, V domains shown)
VH: EVQLVESGGGLVQPGRSLRLSCAVSGFTFDNYAMHWVRQAPGKGLEWVSGISWNSGTLAYADFVMGRFTISRDTAKNSLYLQLNSLRTEDTALYYCAKDIKMYISSSLDYWGQGTLVTVFS
VL: QSALTQPRSVSGSPGQSVTVSCTGTNSDVGAYNFVSWFQHHPGKAPKLIIYDITKRPSGVPDRFSASKSGNTASLTISGLQAEDEAEYYCCSYAGTYHVVFGGGTKLTVL
notes: also called RUPA-96 (IgG1)
B8: binds (Pfs230 C1 [1]); binds [2].

B9: RUPA-73 (antibody, V domains shown)
VH: EPQLVESGGGLVQPGRSLRLSCAGSGFTFGDYAMHWVRQAPGKGLEWVSGISWNSGTLAYAVFVEGRFTISRDNAKNSLYLQMNSLRPEDTAFYYCAKDVKNYVSGGCSDWGQGSLVTVSS
VL: QSALTQPRSVSGSPGQSVTISCTGTSSDVGGYEFVSWYQQYPGKAPKLIIYDVTKRPSGVPAHFSASKSGNTASLTISGLQAEDEADYYCCSYAGTYHVLFGGGTKLTVL
notes: also called RUPA-73 (IgG1)
B9: binds (Pfs230 C1 [1]); binds [2].

B10: RUPA-62 (antibody, V domains shown)
VH: EVQLVESGGGLVQPGRSLRLSCAASGFTFDDYAMHWVRQAPGKGLEWVSGISWNSGSIGYADSVNGRFTISRDNAKKSLYLQMNSLRPEDTALYYCAKDTHEYSSSPGDYWGQGTLVTVSS
VL: QSALTQPRSVSGSPGQSVTISCTGTSSDVGGYTFVSWSQQHPGKAPKLMIYDVSKRPSGVPDRFSGSKSGNTASLTISGLQAEDEADYYCCSYAGTYHVVFGGGTKLTVL
notes: also called RUPA-62 (IgG1)
B10: binds (Pfs230 C1 [1]); binds [2].

B11: RUPA-38 (antibody, V domains shown)
VH: EVQLVESGGGLVQPGRSLRLSCAVSGFNFEDYAMHWVRQTPGKGLEWVSGISWNSGTLAYGDFVQGRFIISRDNAKNFLYLQMNSLRPEDTALYYCANDRMRWIQVPHYWGQGTLVTVSS
VL: LSALTQPRSVSGSPGQSVTISCTGTNDDVGEYNYVSWYQQHPGKAPKLMIYDVTKRPSGVPDRFSASKSGNTASLTISGLQAEDEANYYCCSYAGTYHMVFGGGTKLTVL
notes: also called RUPA-38 (IgG1)
B11: binds (Pfs230 C1 [1]); binds [2].

B12: RUPA-39 (antibody, V domains shown)
VH: DVQLVESGGGLVKPGGSLRLSCAASGFTFSSYTMNWVRQAPGKGLEWVSSISTNIRYIYYADSVKGRFTISRDNAKNSLFLQMDSLRAEDTAVYYCATIAGPLSLKGDFYFDSWGQGTLVTVSS
VL: EIVMTQSPATLSVSPGERATLSCRASQSVSSSLAWYQQKPGQAPRLLIHGASTRATGIPTRFSGSGSGTEFTLTISSLQSEDFAVYYCQQYANWPPWTFGQGTKVESK
notes: also called RUPA-39 (IgG1)
B12: binds (Pfs230 C1 [1]); binds [2].

B13: RUPA-55 (antibody, V domains shown)
VH: DVQLVESGGGLVKPGGSLRLSCAASGFTFNSYTMNWVRQAPGKGLEWVSSISTNIRYIYYADSVKGRFTISRDNAKNSLFLQMDSLRAEDTAVYYCATIAGPLSLKGDFFFDSWGQGTLVTVSP
VL: EIVMTQSPATLSVSPGERATLSCRASQSVSSSLAWYQQKPGQAPRLLIHGASTRATGIPTRFSGSGSGTEFTLTISSLQSEDFAVYYCQQYANWPPWTFGQGTKVESK
notes: also called RUPA-55 (IgG1)
B13: binds (Pfs230 C1 [1]); binds [2].

B14: RUPA-32 (antibody, V domains shown)
VH: EVQLVESGGGLVKPGGSLRLSCAASGFAFSTYAMSWVRQAPGKGLEWVSSISESSSYTYYTDSVKGRFTISRDNAKKSLFLHMNSLRAEDTAVYYCARSDGLSMIAAPFDYWGQGARVTVSS
VL: EIVLTQSPATLSLSPGERATLSCRTSQSLSISLVWYQQKPGQAPRLLISDASNRAPGIPARFSASGSGTDFTLTISSLEPEDFAVYYCQQRSNWPPITFGQGTRLEMK
notes: also called RUPA-32 (IgG1)
B14: binds (Pfs230 C1 [1]); binds [2].

B15: RUPA-103 (antibody, V domains shown)
VH: EVQLVESGGGLVKPGGSLRLSCAASGFTFSSYSMNWVRQAPGKGLEWVSSISSGSSYKYYSDSVKGRFTISRDNAKNSLYLQMNTLRAEDTAVYYCARAPEPGLLWFGEWGDYWGQGTLVTVSS
VL: EIVLTQSPVTLSLSPGERATLSCRASQSISSSLAWYQQKPGQAPRLLIYDASNRATGIPARFSGSGSGTDFTLTISSLEPEDFAVYYCQQRSIWPPITFGQGTRLEIQ
notes: also called RUPA-103 (IgG1)
B15: binds (Pfs230 C1 [1]); binds [2].

B16: RUPA-137 (antibody, V domains shown)
VH: QITLKESGPALVKPTQTLTLTCTFSGFSLTSSGVGVVWVRQPPEKALEWLALIYWDDDRRYSPSLETRLNISKDTSKNQVVLTMTNMDPLDTATYFCAHSRASGWYGYWGQGTLVTVSS
VL: QSVLTQPPSASGTPGQRVTISCSGSRSNLGTNFVYWYQQLPGTAPKLLIYKNYQRPSGVPDRFSGSKSGTSASLSISGLRSEDEADYYCAAWDDNLNGFYVFGTGTKLTVV
notes: also called RUPA-137 (IgG1)
B16: binds (Pfs230 C1 [1]); binds (Pfs230 Pro).
